Assay results as given in article PMC10345191.

Legend:
Assay in all cases: cryo-EM structure
[1] = target: ConM SOSIP soluble gp140 Env trimer, unmodified (GMP) (HIV-1 (group M consensus))
[2] = target: ConSOSL.UFO soluble gp140 Env trimer, unmodified (GMP) (HIV-1 (group M consensus))
[3] = target: EDC cross-linked ConM SOSIP soluble gp140 Env trimer (GMP) (HIV-1 (group M consensus))
[4] = target: EDC cross-linked ConSOSL.UFO soluble gp140 Env trimer (GMP) (HIV-1 (group M consensus))

**Q.** How did the stoichiometry N [1] turn out when “ConM SOSIP soluble gp140 Env trimer, unmodified (GMP) (complex)” was run?
**A.** 3

**Q.** For “ConSOSL.UFO soluble gp140 Env trimer, unmodified (GMP) (complex)”, which stoichiometry N [2] is on record?
**A.** 3

**Q.** How did the stoichiometry N [3] turn out when “EDC cross-linked ConM SOSIP soluble gp140 Env trimer (GMP) (complex)” was run?
**A.** 3

**Q.** For “EDC cross-linked ConSOSL.UFO soluble gp140 Env trimer (GMP) (complex)”, which stoichiometry N [4] is on record?
**A.** 3
